Experimental data as given in paper PMC8363014, “OsMADS23 phosphorylated by SAPK9 confers drought and salt tolerance by regulating ABA biosynthesis in rice” (PLoS Genetics, 2021).

Target: T1, His-SAPK9 (rice, UniProt Q75V57 1-361)
T1 construct: SnRK2-type protein kinase SAPK9 from rice; source: E. coli DE3, pET-32a (+), purified
T1 sequence (looked up): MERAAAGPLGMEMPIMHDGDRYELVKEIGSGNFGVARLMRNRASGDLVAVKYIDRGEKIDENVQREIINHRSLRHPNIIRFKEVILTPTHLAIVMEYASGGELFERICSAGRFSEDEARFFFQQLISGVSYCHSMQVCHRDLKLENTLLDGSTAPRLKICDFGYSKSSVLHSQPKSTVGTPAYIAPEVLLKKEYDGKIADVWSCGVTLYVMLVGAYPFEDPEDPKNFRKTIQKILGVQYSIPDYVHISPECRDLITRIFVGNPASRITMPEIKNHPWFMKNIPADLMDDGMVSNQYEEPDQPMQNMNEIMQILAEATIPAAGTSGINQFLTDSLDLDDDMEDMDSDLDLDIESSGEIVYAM
Test: pull-down; 0.5 mg GST-OsMADS23 or GST on GST Bind Resin, 4°C, 2 h; then 0.5 mg purified His-SAPK9 for 2 h; three washes; western blot with anti-His
Details: both partners purified

B1: GST-tagged OsMADS23 (natural protein)
chain: not shown
notes: MADS-box transcription factor OsMADS23 from rice; Printed as GST-OsMADS23; also called GST-OsMADS23; source: E. coli BL21 (DE3), pGEX-4T-1, purified
- binding result: binds
